Measured values from patent publication US10100120B2, “Antibody which specifically binds to human CRTH2” (KYOWA HAKKO KIRIN CO., LTD, priority 2015, dated 2018).
Positions count from the first letter of the chain named.

Legend:
[1] = molecular target: T1, mutated human CRTH2 with amino acid substitution (Homo sapiens, UniProt Q9Y5Y4, I180A/M181A); test: Epitope analysis using CHO-S cells which express mutated human CRTH2 with amino acid substitution; assay type: binding; conditions: mutant I180A and M181A; antibody 10 μg/mL; relative to wild-type = 100%
T1 construct: inserting genes encoding various mutants with amino acid substitution obtained by deleting termination codons; expressed in transfected cells; host or cells: CHO-S cells (Lifetechnologies), transient (phmAG1-MNLinker vector)
T1 sequence (Q9Y5Y4 1-395 I180A/M181A): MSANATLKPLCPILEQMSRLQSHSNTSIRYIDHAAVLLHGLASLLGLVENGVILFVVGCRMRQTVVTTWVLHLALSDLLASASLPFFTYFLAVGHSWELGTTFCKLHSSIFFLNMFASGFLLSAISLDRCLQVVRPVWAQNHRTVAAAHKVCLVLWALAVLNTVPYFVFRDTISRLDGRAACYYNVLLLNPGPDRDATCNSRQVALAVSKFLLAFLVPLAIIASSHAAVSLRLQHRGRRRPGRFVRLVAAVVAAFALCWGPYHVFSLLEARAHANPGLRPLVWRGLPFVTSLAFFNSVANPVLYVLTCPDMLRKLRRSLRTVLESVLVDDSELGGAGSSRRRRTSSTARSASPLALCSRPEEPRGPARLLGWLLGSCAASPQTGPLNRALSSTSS
Method in brief: (§1)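 CHO-S cells transiently expressing alanine-substituted human CRTH2 extracellular mutants, C-terminally Azami-Green tagged, 24 h post-transfection. Antibodies at 10 μg/mL, 4 °C 1 h, then Alexa647 anti-IgG secondary 4 °C 1 h; flow cytometry on Azami-Green-positive cells. Reactivity = Alexa647 intensity divided by Azami-Green intensity.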

[2] = molecular target: T2, mutated human CRTH2 with amino acid substitution (Homo sapiens, UniProt Q9Y5Y4, D177A/G178A/R179A); test: as above; assay type: binding; conditions: mutant D177A, G178A, and R179A; antibody 10 μg/mL; relative to wild-type = 100%
T2 construct: inserting genes encoding various mutants with amino acid substitution obtained by deleting termination codons; expressed in transfected cells; host or cells: CHO-S cells (Lifetechnologies), transient (phmAG1-MNLinker vector)
T2 sequence (Q9Y5Y4 1-395 D177A/G178A/R179A): T1 sequence (Q9Y5Y4 1-395 I180A/M181A) with D177A, G178A, R179A, A180I, A181M
Method in brief: as §1

reactivity against cells expressing mutated human CRTH2 [1]: lost | reactivity against cells expressing mutated human CRTH2 [2]: lost
B1: LV0HV1: humanized Lym2 antibody, VL LV0 (SEQ ID NO: 33), VH HV1 (SEQ ID NO: 51) (antibody, V domains shown)
VH: EVQLVESGGGVVQPGRSLRLSCAASGFTFSNYYMAWVRQAPGKGLEWVATISYDGSSTYYRDSVKGRFTISRDNAKNSLYLQMNSLRAEDTATYYCARHRGYYYSGAGYFDYWGQGTMVTVSS
VL: DIVMTQTPLSLPVTPGESASISCRSSQSLEYSDGYTYLEWYLQKPGQSPQVLIYGVSNRFSGVPDRFSGSGSGTDFTLKISRVEAEDVGVYYCFQATHDPLTFGQGTKLEIK
